B1: antibody 43 (antibody, V domains shown)
VH: QVALKESGPGILQPSQTLSLTCSFSGFSLSTFGMGVGWIRQSSGKGLEWLANIWWDDDKYYNPALKSRLTISKDASKNQAFLKIANVDTADTATYYCARIGNYGSNYWYFDVWGTGTTVTVSS
VL: QIVLTQSPAIMSASPGERVTMTCSANSRISYMYWYQQKPGSSPRLLIYDTSNLASGVPVRFSGSGSGTSYSLTISRMEAEDAATYNCQQWSSYPLTFGAGTKLELK
notes: Mouse IgG, kappa light chain; also called clone #43
B2: antibody 42 (antibody, V domains shown)
VH: QVTLKESGPGILQPSQTLSLTCSLSGFSLSTFGRGVGWIRQPSGKGLEWLAHIWWDDEKYYNPALKSRLTISKDTSKNQVFLRIANVDTADTATYYCARIQNYGSNYWYFDVWGTGTTVTVSS
VL: LIVLTQSPAIMSASPGEKVTMTCGATSRISYMFWYQQKPGSSPRVLIYDTSNLASGVPVRFSGSGSGTSYSLTISRVEAEDVATYYCQQWNSYPLTFGAGTKLELK
notes: Mouse IgG, kappa light chain; also called clone #42; m42
B3: antibody 44 (antibody, V domains shown)
VH: QVTLKESGPGILQPSQTLSLTCSFSGFSLSTFGMGVGWIRQPSEKGLEWLAHIWWDDDKYYNPALKSRLTISKDTSKNQIFLKITNVDTAETATYYCSRIGNYGSNYWYFDVWGTGTTVTVSS
VL: QIVLTQSPAVMSASPGEKVTMTCTASSSVYYMYWYQQTPGSSPRLLIYDTSNLASGVPVRFSGSGSGTSYSLTISRMEAEDAATYYCQQWNTYPLTFGAGTKLELK
notes: Mouse IgG, kappa light chain; also called clone #44; m44
B4: antibody 5 (antibody, V domains shown)
VH: QVTLKESGPGILQPSQTLSLTCSFSGFSLSTFGMGVGWIRQPSGKGLEWLAHIWWDDEKYYNSALKSRLTISKATSKNQAFLKIANVDTADTATYYCARISNYGSNYWYFNVWGTGTTVTVSS
VL: QVVLTQSPALMSASPGEKVTMTCSAGSSVSCMYWYQQKPGSSPRVLIYDTSNLASGVPARFTGSGSGTSYSLTISRMEAEDAASYYCQQWNSYPLTFGAGTKLELK
notes: Mouse IgG, kappa light chain; also called clone #5; purified antibody 5
B5: antibody 22 (antibody, V domains shown)
VH: QVTLKESGPGILQPSQTLSLTCSFSGFSLSTFGMGVGWIRQPSGKGLEWLAHIWWDDEKYYNSALKSRLTISKATSKNQVFLKIANVDTADTATYYCARISNYGSNYWYFNVWGTGTTVTVSS
VL: QVVLTQSPALMSASPGEKVTMTCSAGSSVSYMYWYQQKPGSSPRVLIYDTSNLASGVPARFTGSGSGTSYSLTISRMEAEDAATYYCQQWNSYPLTFGAGTKLELK
notes: Mouse IgG, kappa light chain; also called clone #22; m22
B6: antibody 16 (antibody, V domains shown)
VH: QVTLKESGPGILQPSQTLSLTCSFSGFSLSTFALGVGWIRQPSGRGLEWLAHIWWDDDKYYNPALKSRLTISKDTSKNHVFLKIANVDTADTATYYCARITTYYYGMDYWGQGTSVTVSS
VL: DIVLSQSPATLSVTPGDSVSLFCRASQSIGNHLHWYQQESHASPRLLIKYASQSISGIPSRFSGSGSGTDFTLSINSVETEDFGMYFCQQSYNWPLTFGAGTKLELK
notes: Mouse IgG, kappa light chain; also called clone #16; m16
B7: antibody 3 (antibody, V domains shown)
VH: QVTLKESGPGILQPSQTLSLTCSFSGFSLTTFAMGIGWVRQPSGKGLEWLAHIWWDGEKYNNPVLKSRLTISKDTSKNQVFLRIANVDTPDTATYYCARISSIYYIIDNWGQGTSVTVSS
VL: DIVLTQSPATLSVTPGHSVSLSCRASQSISNNLHWYQKKSHESPRLLIKYVSQSISGIPSRFSGSGSGTDFTLSINSVETEDFGMYFCQQSYNWPLTFGAGTKLELK
notes: Mouse IgG, kappa light chain; also called clone #3; purified antibody 3
B8: antibody 34 (antibody, V domains shown)
VH: QVTLKESGPGILQPSQTLSLTCSFSGFSLSTFSLGVGWIRQSSGKGLEWLAHIWWDDEKYYNPALKSRLTISKDTSKNQVFLKIANVDAADTATYYCARAYYSKSYYALDYWGQGTSVTVSS
VL: DIQMTQSPSSLSASLGERVSLTCRASQEISGYLSWLQQKPDGTIKRLIYAASTLDSGVPKRFSGSRSGSDYSLAISSLESEDFADYYCLQYANFPFTFGSGTKLEIK
notes: Mouse IgG, kappa light chain; also called clone #34; m34

For this assay, the target named is T1, hiR2-FL-P533-T7 (human iRhom2 full length with deletion of P533, 3 x T7 tag) (human, UniProt Q6PJF5 1-856).
T1 construct: The change is a deletion of one residue, not a substitution
T1 sequence: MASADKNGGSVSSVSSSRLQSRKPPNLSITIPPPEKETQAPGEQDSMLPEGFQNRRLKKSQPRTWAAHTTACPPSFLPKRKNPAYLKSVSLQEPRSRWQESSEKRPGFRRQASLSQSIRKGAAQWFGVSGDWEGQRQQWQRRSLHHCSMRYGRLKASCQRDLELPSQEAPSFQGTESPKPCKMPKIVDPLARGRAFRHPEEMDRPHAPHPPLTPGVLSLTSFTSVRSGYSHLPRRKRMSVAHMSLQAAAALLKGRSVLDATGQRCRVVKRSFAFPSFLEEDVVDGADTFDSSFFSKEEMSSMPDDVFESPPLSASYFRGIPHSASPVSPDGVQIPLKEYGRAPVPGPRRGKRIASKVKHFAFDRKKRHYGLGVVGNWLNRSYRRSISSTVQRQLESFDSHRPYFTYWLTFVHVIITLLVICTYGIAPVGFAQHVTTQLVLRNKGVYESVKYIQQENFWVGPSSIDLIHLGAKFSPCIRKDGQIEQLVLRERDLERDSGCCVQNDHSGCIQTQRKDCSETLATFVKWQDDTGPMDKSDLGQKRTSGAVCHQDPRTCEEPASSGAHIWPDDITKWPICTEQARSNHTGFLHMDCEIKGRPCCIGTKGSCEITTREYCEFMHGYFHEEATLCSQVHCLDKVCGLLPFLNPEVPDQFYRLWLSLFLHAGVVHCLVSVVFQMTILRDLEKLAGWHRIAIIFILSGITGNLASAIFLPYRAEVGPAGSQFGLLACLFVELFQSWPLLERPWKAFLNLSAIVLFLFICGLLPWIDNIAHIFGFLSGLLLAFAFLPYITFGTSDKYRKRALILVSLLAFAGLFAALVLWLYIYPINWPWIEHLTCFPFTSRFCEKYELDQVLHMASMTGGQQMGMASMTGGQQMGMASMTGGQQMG
Nature of the assay: FACS on cells of the row P533-, vs human iR2 wild type = 100%. An excerpt: In brief, immortalized MEF-DKO-hiR2-FL-WT-T7 cells, MEF-DKO-miR2-FL-WT-T7 cells and MEF-DKO-hiR2-FL-R441K-T7, MEF-DKO-hiR2-FL-K443R-T7, MEF-DKO-hiR2-FL-V459I-T7, MEF-DKO-hiR2-FL-G481Q-T7, MEF-DKO-hiR2-FL-L488R-T7, MEF-DKO-hiR2-FL-L493I-T7, MEF-DKO-hiR2-FL-D496T-T7, MEF-DKO-hiR2-FL-H505R-T7, MEF-DKO-hiR2-FL-Q512L-T7, MEF-DKO-hiR2-FL-R513K-T7, MEF-DKO-hiR2-FL-D528N-T7, MEF-DKO-hiR2-FL-P533-T7, MEF-DKO-hiR2-FL-M534S-T7, MEF-DKO-hiR2-FL-G540S-T7, MEF-DKO-hiR2-FL-R543Q-T7, MEF-DKO-hiR2-FL-T544P-T7, MEF-DKO-hiR2-FL-G546A-T7, MEF-DKO-hiR2-FL-A547V-T7, MEF-DKO-hiR2-FL-R582Q-T7, MEF-DKO-hiR2-FL-F588L-T7, MEF-DKO-hiR2-FL-M591I-T7, MEF-DKO-hiR2-FL-E594K-T7, MEF-DKO-hiR2-FL-E626D-T7, MEF-DKO-hiR2-FL-L657I-T7, and MEF-DKO-hiR2-FL-H835Y-T7 cells were harvested with 10 mM EDTA in PBS, washed and resuspended in FACS buffer (PBS, 3% FBS, 0.05% sodium azide), and seeded in Nunc U-bottom 96-well plates (Thermo Fisher Scientific, USA) at approximately 3×10⁵ cells per well. To pellet cells and remove supernatants, the plates were centrifuged at 1,500 rpm and 4° C. for 3 minutes. For primary staining, cells were resuspended in 100 μl per well of either FACS buffer alone (controls) or the purified antibodies 3, 5, 16, 22, 34, 42, 43, 44, 48, and 50 of the present disclosure at 3 μg/ml FACS buffer and incubated on ice for 1 hour. Afterwards, plates were centrifuged at 1,500 rpm and 4° C. for 3 minutes and washed twice with 200 μl per well of FACS buffer. For secondary staining, cells were spun down and resuspended in 100 μl per well of PE-conjugated goat anti-mouse IgG F(ab′)2 detection fragment (Dianova, Germany) diluted 1:100 in FACS buffer. Protected from light, the cell suspensions were incubated on ice for 1 hour. Plates were then centrifuged at 1,500 rpm and 4° C. for 3 minutes and washed three times with 200 μl per well of FACS buffer. Finally, cells were resuspended in 150 μl per well of FACS buffer and analyzed using a BD Accuri™ C6 Plus flow cytometer (Becton Dickinson, Germany).
B1: the “grade of loss of binding vs wild type” value was 3 grade (3 => 95% loss of binding vs wild type).
Next, B2: 3 grade (3 => 95% loss of binding vs wild type); B3: 3 grade (3 => 95% loss of binding vs wild type); B4: 3 grade (3 => 95% loss of binding vs wild type).
As to B5, the “grade of loss of binding vs wild type” value was 3 grade (3 => 95% loss of binding vs wild type).
Regarding B6, the “grade of loss of binding vs wild type” value was 3 grade (3 => 95% loss of binding vs wild type).
Next, B7: 3 grade (3 => 95% loss of binding vs wild type).
As for B8, the figure is 3 grade (3 => 95% loss of binding vs wild type).

(Values after patent US20240174744A1 (SCIRHOM, published 2024).)
